What was measured:
LbCas12a-K595Y [1] = biological target: T1, LbCas12a-K595Y (Lachnospiraceae bacterium ND2006, K595Y); test: cleavage_in_vitro; PAM ACCC; NEB 2.1, 37C; wt TTTV benchmark 9.2
LbCas12a-K595Y [2] = biological target: T1, LbCas12a-K595Y; test: cleavage_in_vitro; PAM GCGC; NEB 2.1, 37C
LbCas12a-K595Y [3] = biological target: T1, LbCas12a-K595Y; test: cleavage_in_vitro; PAM TTCG; NEB 2.1, 37C
LbCas12a-T152R [4] = biological target: T2, LbCas12a-T152R (Lachnospiraceae bacterium ND2006, T152R); test: cleavage_in_vitro; PAM CTTC; NEB 2.1, 37C
LbCas12a-G532H [5] = biological target: T3, LbCas12a-G532H (Lachnospiraceae bacterium ND2006, G532H); test: cleavage_in_vitro; PAM CTTC; NEB 2.1, 37C
LbCas12a-T152R [6] = biological target: T2, LbCas12a-T152R; test: cleavage_in_vitro; PAM CCTG; NEB 2.1, 37C
LbCas12a-K121R [7] = biological target: T4, LbCas12a-K121R (Lachnospiraceae bacterium ND2006, K121R); test: cleavage_in_vitro; PAM CCTG; NEB 2.1, 37C
LbCas12a-T152R [8] = biological target: T2, LbCas12a-T152R; test: cleavage_in_vitro; PAM GCCC; NEB 2.1, 37C
LbCas12a-D535N [9] = biological target: T5, LbCas12a-D535N (Lachnospiraceae bacterium ND2006, D535N); test: cleavage_in_vitro; PAM TTTC; NEB 2.1, 37C
LbCas12a-K538W [10] = biological target: T6, LbCas12a-K538W (Lachnospiraceae bacterium ND2006, K538W); test: cleavage_in_vitro; PAM TTTC; NEB 2.1, 37C
LbCas12a-K538W [11] = biological target: T6, LbCas12a-K538W; test: cleavage_in_vitro; PAM TATA; NEB 2.1, 37C
LbCas12a-K538W [12] = biological target: T6, LbCas12a-K538W; test: cleavage_in_vitro; PAM TATC; NEB 2.1, 37C
LbCas12a-D122H = LbCas12a-D122H (Lachnospiraceae bacterium ND2006, D122H); test: cleavage_in_vitro; PAM TCCC; NEB 2.1, 37C
LbCas12a-D156Q [13] = biological target: T7, LbCas12a-D156Q (Lachnospiraceae bacterium ND2006, D156Q); test: cleavage_in_vitro; PAM GTTC; NEB 2.1, 37C
LbCas12a-D156Q [14] = biological target: T7, LbCas12a-D156Q; test: cleavage_in_vitro; PAM CCTA; NEB 2.1, 37C
LbCas12a-D535N [15] = biological target: T5, LbCas12a-D535N; test: cleavage_in_vitro; PAM TTGC; NEB 2.1, 37C
LbCas12a-G532H [16] = biological target: T3, LbCas12a-G532H; test: cleavage_in_vitro; PAM TTCA; NEB 2.1, 37C
LbCas12a-E159K [17] = biological target: T8, LbCas12a-E159K (Lachnospiraceae bacterium ND2006, E159K); test: cleavage_in_vitro; PAM TTCT; NEB 2.1, 37C
LbCas12a-K121R [18] = biological target: T4, LbCas12a-K121R; test: cleavage_in_vitro; PAM TTCT; NEB 2.1, 37C
LbCas12a-E159K [19] = biological target: T8, LbCas12a-E159K; test: cleavage_in_vitro; PAM CCCC; NEB 2.1, 37C
LbCas12a-K595W [20] = biological target: T9, LbCas12a-K595W (Lachnospiraceae bacterium ND2006, K595W); test: cleavage_in_vitro; PAM CCCC; NEB 2.1, 37C
LbCas12a-K595W [21] = biological target: T9, LbCas12a-K595W; test: cleavage_in_vitro; PAM ACGG; NEB 2.1, 37C

B1: PAMDA protospacer 1 crRNA ; protospacer 1 with ACCC PAM (ssRNA ; dsDNA)
RNA: AAUUUCUACUAAGUGUAGAUGGAAUCCCUUCUGCAGCACCUGG
DNA 1: ACCCGGAATCCCTTCTGCAGCACCTGG
DNA 2: CCAGGTGCTGCAGAAGGGATTCCGGGT
activity (LbCas12a-K595Y [1]): 18.7 fold depletion

B2: PAMDA protospacer 1 crRNA ; protospacer 1 with GCGC PAM (ssRNA ; dsDNA)
RNA: AAUUUCUACUAAGUGUAGAUGGAAUCCCUUCUGCAGCACCUGG
DNA 1: GCGCGGAATCCCTTCTGCAGCACCTGG
DNA 2: CCAGGTGCTGCAGAAGGGATTCCGCGC
activity (LbCas12a-K595Y [2]): 17.5 fold depletion

B3: PAMDA protospacer 1 crRNA ; protospacer 1 with TTCG PAM (ssRNA ; dsDNA)
RNA: AAUUUCUACUAAGUGUAGAUGGAAUCCCUUCUGCAGCACCUGG
DNA 1: TTCGGGAATCCCTTCTGCAGCACCTGG
DNA 2: CCAGGTGCTGCAGAAGGGATTCCCGAA
activity (LbCas12a-K595Y [3]): 17.8 fold depletion

B4: PAMDA protospacer 1 crRNA ; protospacer 1 with CTTC PAM (ssRNA ; dsDNA)
RNA: AAUUUCUACUAAGUGUAGAUGGAAUCCCUUCUGCAGCACCUGG
DNA 1: CTTCGGAATCCCTTCTGCAGCACCTGG
DNA 2: CCAGGTGCTGCAGAAGGGATTCCGAAG
activity (LbCas12a-T152R [4]): 16.1 fold depletion | activity (LbCas12a-G532H [5]): 15.1 fold depletion

B5: PAMDA protospacer 1 crRNA ; protospacer 1 with CCTG PAM (ssRNA ; dsDNA)
RNA: AAUUUCUACUAAGUGUAGAUGGAAUCCCUUCUGCAGCACCUGG
DNA 1: CCTGGGAATCCCTTCTGCAGCACCTGG
DNA 2: CCAGGTGCTGCAGAAGGGATTCCCAGG
activity (LbCas12a-T152R [6]): 14.8 fold depletion | activity (LbCas12a-K121R [7]): 13 fold depletion

B6: PAMDA protospacer 1 crRNA ; protospacer 1 with GCCC PAM (ssRNA ; dsDNA)
RNA: AAUUUCUACUAAGUGUAGAUGGAAUCCCUUCUGCAGCACCUGG
DNA 1: GCCCGGAATCCCTTCTGCAGCACCTGG
DNA 2: CCAGGTGCTGCAGAAGGGATTCCGGGC
activity (LbCas12a-T152R [8]): 13 fold depletion

B7: PAMDA protospacer 1 crRNA ; protospacer 1 with TTTC PAM (ssRNA ; dsDNA)
RNA: AAUUUCUACUAAGUGUAGAUGGAAUCCCUUCUGCAGCACCUGG
DNA 1: TTTCGGAATCCCTTCTGCAGCACCTGG
DNA 2: CCAGGTGCTGCAGAAGGGATTCCGAAA
activity (LbCas12a-D535N [9]): 10.5 fold depletion | activity (LbCas12a-K538W [10]): 11.7 fold depletion

B8: PAMDA protospacer 1 crRNA ; protospacer 1 with TATA PAM (ssRNA ; dsDNA)
RNA: AAUUUCUACUAAGUGUAGAUGGAAUCCCUUCUGCAGCACCUGG
DNA 1: TATAGGAATCCCTTCTGCAGCACCTGG
DNA 2: CCAGGTGCTGCAGAAGGGATTCCTATA
activity (LbCas12a-K538W [11]): 10.4 fold depletion

B9: PAMDA protospacer 1 crRNA ; protospacer 1 with TATC PAM (ssRNA ; dsDNA)
RNA: AAUUUCUACUAAGUGUAGAUGGAAUCCCUUCUGCAGCACCUGG
DNA 1: TATCGGAATCCCTTCTGCAGCACCTGG
DNA 2: CCAGGTGCTGCAGAAGGGATTCCGATA
activity (LbCas12a-K538W [12]): 9.66 fold depletion

B10: PAMDA protospacer 1 crRNA ; protospacer 1 with TCCC PAM (ssRNA ; dsDNA)
RNA: AAUUUCUACUAAGUGUAGAUGGAAUCCCUUCUGCAGCACCUGG
DNA 1: TCCCGGAATCCCTTCTGCAGCACCTGG
DNA 2: CCAGGTGCTGCAGAAGGGATTCCGGGA
activity (LbCas12a-D122H): 18.8 fold depletion

B11: PAMDA protospacer 1 crRNA ; protospacer 1 with GTTC PAM (ssRNA ; dsDNA)
RNA: AAUUUCUACUAAGUGUAGAUGGAAUCCCUUCUGCAGCACCUGG
DNA 1: GTTCGGAATCCCTTCTGCAGCACCTGG
DNA 2: CCAGGTGCTGCAGAAGGGATTCCGAAC
activity (LbCas12a-D156Q [13]): 15.6 fold depletion

B12: PAMDA protospacer 1 crRNA ; protospacer 1 with CCTA PAM (ssRNA ; dsDNA)
RNA: AAUUUCUACUAAGUGUAGAUGGAAUCCCUUCUGCAGCACCUGG
DNA 1: CCTAGGAATCCCTTCTGCAGCACCTGG
DNA 2: CCAGGTGCTGCAGAAGGGATTCCTAGG
activity (LbCas12a-D156Q [14]): 13.4 fold depletion

B13: PAMDA protospacer 1 crRNA ; protospacer 1 with TTGC PAM (ssRNA ; dsDNA)
RNA: AAUUUCUACUAAGUGUAGAUGGAAUCCCUUCUGCAGCACCUGG
DNA 1: TTGCGGAATCCCTTCTGCAGCACCTGG
DNA 2: CCAGGTGCTGCAGAAGGGATTCCGCAA
activity (LbCas12a-D535N [15]): 10.9 fold depletion

B14: PAMDA protospacer 1 crRNA ; protospacer 1 with TTCA PAM (ssRNA ; dsDNA)
RNA: AAUUUCUACUAAGUGUAGAUGGAAUCCCUUCUGCAGCACCUGG
DNA 1: TTCAGGAATCCCTTCTGCAGCACCTGG
DNA 2: CCAGGTGCTGCAGAAGGGATTCCTGAA
activity (LbCas12a-G532H [16]): 16.2 fold depletion

B15: PAMDA protospacer 1 crRNA ; protospacer 1 with TTCT PAM (ssRNA ; dsDNA)
RNA: AAUUUCUACUAAGUGUAGAUGGAAUCCCUUCUGCAGCACCUGG
DNA 1: TTCTGGAATCCCTTCTGCAGCACCTGG
DNA 2: CCAGGTGCTGCAGAAGGGATTCCAGAA
activity (LbCas12a-E159K [17]): 12.7 fold depletion | activity (LbCas12a-K121R [18]): 14.4 fold depletion

B16: PAMDA protospacer 1 crRNA ; protospacer 1 with CCCC PAM (ssRNA ; dsDNA)
RNA: AAUUUCUACUAAGUGUAGAUGGAAUCCCUUCUGCAGCACCUGG
DNA 1: CCCCGGAATCCCTTCTGCAGCACCTGG
DNA 2: CCAGGTGCTGCAGAAGGGATTCCGGGG
activity (LbCas12a-E159K [19]): 12.3 fold depletion | activity (LbCas12a-K595W [20]): 11.9 fold depletion

B17: PAMDA protospacer 1 crRNA ; protospacer 1 with ACGG PAM (ssRNA ; dsDNA)
RNA: AAUUUCUACUAAGUGUAGAUGGAAUCCCUUCUGCAGCACCUGG
DNA 1: ACGGGGAATCCCTTCTGCAGCACCTGG
DNA 2: CCAGGTGCTGCAGAAGGGATTCCCCGT
activity (LbCas12a-K595W [21]): 11.5 fold depletion
